In paper PMC3942486, “The Ansamycin Antibiotic, Rifamycin SV, Inhibits BCL6 Transcriptional Repression and Forms a Complex with the BCL6-BTB/POZ Domain” (PLoS ONE, 2014) one finds Kd data, which are given here for two substances.

The test deals with BCL6-POZ domain (residues 7 to 128 of human BCL6, C8Q, C67R, C84N) (UniProt P41182). Kind of test: fluorescence polarisation.

“wild-type SMRT peptide, labelled with BODIPY TMR H1426(homophenylalanine)” displayed a Kd of 43 µM. In turn, “wild-type SMRT peptide, labelled with BODIPY TMR H1426(styrylalanine)” showed a Kd of 41 µM. This Kd and that of the substance before are within 1.5-fold of each other.
